Assay [1] deals with HA protein of FJ13 virus in infected MDCK cells (Influenza A virus A/duck/Fujian/13/2002 …, UniProt Q9Q0U6, strain). The assay is described as follows: immunostaining of cells or tissue. The note with it: partners not purified.
Assay [2] has as its target HA protein on FJ13 virus (A/duck/Fujian/13/2002, H5N1), virus particles (Influenza A virus A/duck/Fujian/13/2002 …, UniProt Q9Q0U6, strain). The assay is described as follows: ELISA. The note with it: one partner purified.

B1: scFv3 secreted from DF-1 cells, c-Myc tagged (scFv, V domains shown)
VH: AVTLDESGGGLQTPGGALSLVCKASGFTFSSYDMYWVRQAPGKGLEFVAIINSGGSTSYYASAVKGRATISRDNGQSTVRLQLNNLRADDTGTYYCAKGPSAIDAWGHGTEVIVSS
VL: ALTQPSSVSANPGETVKITCSGGSSTYGYSWHQQKSPGSAPVTVVYSNDERPSDIPSRFSGSKSGSTGTLTITGVQADDEAIYYCGTYGSTDSGYVGIFGARTTLTVL
On to B1, for which the binding result in assay [1] and in assay [2] was “binds” each time.

Source of the values: article PMC4264339 (Virology Journal, 2014).
